Measured values: patent publication US20260055205A1 (published 2026)
Substitutions are numbered along the chain they refer to.

B1: PSMA.6 (uTCE of AC2728) (bispecific antibody, V domains shown)
VH: EVQLVESGGGVVQPGRSLRLSCAASGRTFGIYVMGWVRQAPGKEREFVAAISWSGSNRLVSDSVKGRFTISRDNSKNTLYLQMNSLRAEDTAVYFCAASNRLYGRTWYDFNESDYWGQGTTVTVSS
notes: TCE with CD3.23; also called VHH14
B2: PSMA.250 (bispecific antibody, V domains shown)
VH: B1 VH with E1Q, V37Y, I51M, L59K, F95Y, R101K, T121Q
notes: TCE with CD3.23; also called AC3461
B3: PSMA.251 (bispecific antibody, V domains shown)
VH: B1 VH with E1Q, V37Y, L59K, F95Y, R101K, T121Q
notes: TCE with CD3.23; also called AC3462
B4: PSMA.252 (bispecific antibody, V domains shown)
VH: B1 VH with E1Q, V37Y, I51M, L59K, F95Y, L102W, T121Q
notes: TCE with CD3.23; also called AC3463
B5: PSMA.253 (bispecific antibody, V domains shown)
VH: B1 VH with E1Q, V37Y, L59K, F95Y, L102W, T121Q
notes: TCE with CD3.23; also called AC3464
B6: PSMA.254 (bispecific antibody, V domains shown)
VH: B1 VH with E1Q, V37Y, I51M, L59K, F95Y, L102Y, T121Q
notes: TCE with CD3.23; also called AC3465
B7: PSMA.255 (bispecific antibody, V domains shown)
VH: B1 VH with E1Q, V37Y, L59K, F95Y, L102Y, T121Q
notes: TCE with CD3.23; also called AC3466
B8: PSMA.256 (bispecific antibody, V domains shown)
VH: B1 VH with E1Q, V37Y, I51M, L59K, F95Y, T121Q
notes: TCE with CD3.23; also called AC3467
B9: PSMA.257 (bispecific antibody, V domains shown)
VH: B1 VH with E1Q, V37Y, L59K, F95Y, T121Q
notes: TCE with CD3.23; also called AC3468
B10: PSMA.260 (bispecific antibody, V domains shown)
VH: B1 VH with E1Q, V33A, A49G, L59K, F95Y, R101K, T121Q
notes: TCE with CD3.23; also called AC3469
B11: PSMA.261 (bispecific antibody, V domains shown)
VH: B1 VH with E1Q, M34F, A49G, L59K, F95Y, R101K, T121Q
notes: TCE with CD3.23; also called AC3470
B12: PSMA.264 (bispecific antibody, V domains shown)
VH: B1 VH with E1Q, V33A, I51M, L59K, F95Y, R101K, T121Q
notes: TCE with CD3.23; also called AC3473
B13: PSMA.265 (bispecific antibody, V domains shown)
VH: B1 VH with E1Q, M34F, I51M, L59K, F95Y, R101K, T121Q
notes: TCE with CD3.23; also called AC3474
B14: PSMA.266 (bispecific antibody, V domains shown)
VH: B1 VH with E1Q, M34W, I51M, L59K, F95Y, R101K, T121Q
notes: TCE with CD3.23; also called AC3475
B15: PSMA.267 (bispecific antibody, V domains shown)
VH: B1 VH with E1Q, V37F, I51M, L59K, F95Y, R101K, T121Q
notes: TCE with CD3.23; also called AC3476
B16: PSMA.268 (bispecific antibody, V domains shown)
VH: B1 VH with E1Q, V33A, A49G, L59K, F95Y, L102T, T121Q
notes: TCE with CD3.23; also called AC3477
B17: PSMA.269 (bispecific antibody, V domains shown)
VH: B1 VH with E1Q, M34F, A49G, L59K, F95Y, L102T, T121Q
notes: TCE with CD3.23; also called AC3478
B18: PSMA.270 (bispecific antibody, V domains shown)
VH: B1 VH with E1Q, M34W, A49G, L59K, F95Y, L102T, T121Q
notes: TCE with CD3.23; also called AC3479
B19: PSMA.271 (bispecific antibody, V domains shown)
VH: B1 VH with E1Q, V37F, A49G, L59K, F95Y, L102T, T121Q
notes: TCE with CD3.23; also called AC3480
B20: PSMA.272 (bispecific antibody, V domains shown)
VH: B1 VH with E1Q, V33A, I51M, L59K, F95Y, L102T, T121Q
notes: TCE with CD3.23; also called AC3481
B21: PSMA.273 (bispecific antibody, V domains shown)
VH: B1 VH with E1Q, M34F, I51M, L59K, F95Y, L102T, T121Q
notes: TCE with CD3.23; also called AC3482
B22: PSMA.274 (bispecific antibody, V domains shown)
VH: B1 VH with E1Q, M34W, I51M, L59K, F95Y, L102T, T121Q
notes: TCE with CD3.23; also called AC3483

Molecular target: T1, human PSMA-Fc (human, UniProt Q04609 44-750)
T1 construct: also called Human PSMA-Fc fusion
Assay: Octet

T1 sequence (Q04609 44-750 limits assumed): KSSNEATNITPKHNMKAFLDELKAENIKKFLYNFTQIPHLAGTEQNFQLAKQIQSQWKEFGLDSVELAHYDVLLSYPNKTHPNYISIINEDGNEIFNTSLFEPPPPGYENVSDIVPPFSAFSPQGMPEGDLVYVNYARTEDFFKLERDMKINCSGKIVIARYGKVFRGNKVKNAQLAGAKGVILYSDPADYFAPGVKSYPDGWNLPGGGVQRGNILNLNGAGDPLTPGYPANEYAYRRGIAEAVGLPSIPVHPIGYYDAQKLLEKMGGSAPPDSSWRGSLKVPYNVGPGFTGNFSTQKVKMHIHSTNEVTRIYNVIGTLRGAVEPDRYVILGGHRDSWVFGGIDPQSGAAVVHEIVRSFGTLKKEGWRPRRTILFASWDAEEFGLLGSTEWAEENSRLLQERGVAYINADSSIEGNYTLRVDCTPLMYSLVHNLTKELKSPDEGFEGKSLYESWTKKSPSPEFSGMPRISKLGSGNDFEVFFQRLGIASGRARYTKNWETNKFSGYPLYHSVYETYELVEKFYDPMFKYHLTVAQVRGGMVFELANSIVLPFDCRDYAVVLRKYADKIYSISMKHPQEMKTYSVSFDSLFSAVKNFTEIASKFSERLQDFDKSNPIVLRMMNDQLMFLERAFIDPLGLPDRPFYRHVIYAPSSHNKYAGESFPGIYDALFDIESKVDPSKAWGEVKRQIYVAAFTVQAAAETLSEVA

| Binder | Kd | koff | kon |
| --- | --- | --- | --- |
| B1 | 2.3 nM | 0.00024 s⁻¹ | 96000 M⁻¹ s⁻¹ |

Molecular target: T2, human PSMA (human, UniProt Q04609 44-750, limits assumed)
T2 construct: also called huPSMA; hPSMA
Assay: binding screen

T2 sequence (Q04609 44-750 limits assumed): as above

| Binder | Kd |
| --- | --- |
| B2 | 6.2 nM |
| B3 | 5.1 nM |
| B4 | 15.9 nM |
| B5 | 8.5 nM |
| B6 | 41 nM |
| B7 | 18.9 nM |
| B8 | 3.4 nM |
| B9 | 2.3 nM |
| B10 | 11.4 nM |
| B11 | 2.1 nM |
| B12 | 18.6 nM |
| B13 | 3.9 nM |
| B14 | 4.6 nM |
| B15 | 5.6 nM |
| B16 | 131 nM |
| B17 | 5.5 nM |
| B18 | 6.5 nM |
| B19 | 9.1 nM |
| B20 | 504 nM |
| B21 | 16.6 nM |
| B22 | 39.6 nM |

Molecular target: T1, human PSMA-Fc
Assay: Octet, PSMA-Fc
Description: Binding affinity of select PSMA PTE variants was tested by Octet.

| Binder | Kd | koff | kon |
| --- | --- | --- | --- |
| B1 | 2.3 nM | 0.000235 s⁻¹ | 96300 M⁻¹ s⁻¹ |
